Measurements as given in patent USRE44359 (Hoffmann-La Roche Inc, dated 2013).

Molecular target: T1, Recombinant P-selectin (R&D Systems) (human, UniProt P16109 42-771)
T1 construct: extracellular domain; also called recombinant human P-selectin; recombinant truncated form of P-selectin
T1 sequence (looked up): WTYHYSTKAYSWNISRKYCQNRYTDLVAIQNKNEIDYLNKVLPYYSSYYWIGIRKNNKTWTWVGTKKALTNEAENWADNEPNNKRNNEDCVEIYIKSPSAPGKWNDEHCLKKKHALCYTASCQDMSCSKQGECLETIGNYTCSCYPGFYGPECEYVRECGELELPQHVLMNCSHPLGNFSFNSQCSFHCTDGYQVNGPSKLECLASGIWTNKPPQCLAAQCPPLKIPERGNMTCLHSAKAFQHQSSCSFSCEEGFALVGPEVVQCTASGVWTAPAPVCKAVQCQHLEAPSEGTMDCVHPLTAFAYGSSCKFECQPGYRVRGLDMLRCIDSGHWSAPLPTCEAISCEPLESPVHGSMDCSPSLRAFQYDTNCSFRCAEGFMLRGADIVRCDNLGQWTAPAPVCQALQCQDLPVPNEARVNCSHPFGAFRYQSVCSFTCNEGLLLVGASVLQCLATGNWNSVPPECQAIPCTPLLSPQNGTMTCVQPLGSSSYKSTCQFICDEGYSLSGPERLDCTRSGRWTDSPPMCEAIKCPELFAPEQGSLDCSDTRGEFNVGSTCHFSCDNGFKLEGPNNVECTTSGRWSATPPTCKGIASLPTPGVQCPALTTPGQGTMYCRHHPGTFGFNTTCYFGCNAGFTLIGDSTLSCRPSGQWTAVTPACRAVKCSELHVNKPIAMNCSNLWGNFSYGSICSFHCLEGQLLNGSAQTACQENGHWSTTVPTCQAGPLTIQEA
Assay: SPR, BIACORE 2000; antibody captured by anti-human Fcγ on CM5, recombinant P-selectin 0-50 nM as analyte; 1:1 Langmuir fit

B1: HuMab 017 (antibody, V domains shown)
VH: QPQLVQSGAEVKKPGASVKVSCKVSGNTLTELSMHWVRQAPGKGLEWMGGFDPENGEAIYAQKFQGRVTMTADTSTDTAYMDLSSLRSEDTAVYYCATDLAGGSDFYYYGLDVWGQGTTVTVSS
VL: AIQLTQSPSSLSASVGDRVTITCRASQGISSALAWYQQKPGKAPKLLIYDASSLESGVPSRFSGSGSGTDFTLTISSLQPEDFATYYCQQFNSYPYTFGQGTKLEIK
notes: Human monoclonal antibody; kappa light and gamma1 heavy chains by the cloning section; also called antibody 017; LC 1004-017
- Ka: 5.59e+09 M⁻¹
